Consider 4 molecules from publication PMC11908248 (bioRxiv, 2025).

First the molecules themselves.
B1: UNC-83a^N-term-mScarlet-StrepII (domain or fragment, C. elegans, UniProt Q23064 1-305, looked up)
chain: MDVMDSFSEVEMPNDISSEDHLLKVIESSAEEVDIFLENCSSLYNLILDSLHNLTSKTISCECLDEMTSTLEKSAKKILAERPEAENSVLLRLNTICCAMDQLRVQHNSRMMSGADSDTASSARSSTSSSTGEMRLWLHEVERRLEINEKRIRVEPNLQLLLSDQQALQLEIQHEGQLLVNRLNKQIKDDHDSDSSEEEKRKTCVDAIRKRWHTIYLNSLSLVCRIEELINHQQASEDSESDPDLVGPPIKRARIRTVGHLTASDTEESEADEEDRHSQTETVVTEDDNVLPFAENEYESIMDGR
B2: UNC-116-sfGFP-StrepII (natural protein, C. elegans, UniProt P34540 1-815, looked up)
chain: MEPRTDGAECGVQVFCRIRPLNKTEEKNADRFLPKFPSEDSISLGGKVYVFDKVFKPNTTQEQVYKGAAYHIVQDVLSGYNGTVFAYGQTSSGKTHTMEGVIGDNGLSGIIPRIVADIFNHIYSMDENLQFHIKVSYYEIYNEKIRDLLDPEKVNLSIHEDKNRVPYVKGATERFVGGPDEVLQAIEDGKSNRMVAVTNMNEHSSRSHSVFLITVKQEHQTTKKQLTGKLYLVDLAGSEKVSKTGAQGTVLEEAKNINKSLTALGIVISALAEGTKSHVPYRDSKLTRILQESLGGNSRTTVIICASPSHFNEAETKSTLLFGARAKTIKNVVQINEELTAEEWKRRYEKEKEKNTRLAALLQAAALELSRWRAGESVSEVEWVNLSDSAQMAVSEVSGGSTPLMERSIAPAPPMLTSTTGPITDEEKKKYEEERVKLYQQLDEKDDEIQKVSQELEKLRQQVLLQEEALGTMRENEELIREENNRFQKEAEDKQQEGKEMMTALEEIAVNLDVRQAECEKLKRELEVVQEDNQSLEDRMNQATSLLNAHLDECGPKIRHFKEGIYNVIREFNIADIASQNDQLPDHDLLNHVRIGVSKLFSEYSAAKESSTAAEHDAEAKLAADVARVESGQDAGRMKQLLVKDQAAKEIKPLTDRVNMELTTLKNLKKEFMRVLVARCQANQDTEGEDSLSGPAQKQRIQFLENNLDKLTKVHKQLVRDNADLRVELPKMEARLRGREDRIKILETALRDSKQRSQAERKKYQQEVERIKEAVRQRNMRRMNAPQIVKPIRPGQVYTSPSAGMSQGAPNGSNA

The target in series [1] is UNC-116-sfGFP-StrepII (C. elegans) (UniProt P34540). The series is described as follows: mass photometry.
For series [2], the target named is C. elegans kinesin-1 heterotetramer (UNC-116-sfGFP-StrepII + KLC-2-6xHis) (C. elegans) (UniProt P34540). The series is described as follows: mass photometry.
Series [3] addresses GST-KLC-2 (C. elegans) (UniProt P46822). The series is described as follows: BLI.
The target is the same in series [4]. The series is described as follows: mass photometry.
Series [5] concerns the target B2. The series is described as follows: mass photometry.
Series [6] deals with the molecule itself. The series is described as follows: mass photometry.

Chain of GST-KLC-2 (C. elegans) (P46822 whole entry): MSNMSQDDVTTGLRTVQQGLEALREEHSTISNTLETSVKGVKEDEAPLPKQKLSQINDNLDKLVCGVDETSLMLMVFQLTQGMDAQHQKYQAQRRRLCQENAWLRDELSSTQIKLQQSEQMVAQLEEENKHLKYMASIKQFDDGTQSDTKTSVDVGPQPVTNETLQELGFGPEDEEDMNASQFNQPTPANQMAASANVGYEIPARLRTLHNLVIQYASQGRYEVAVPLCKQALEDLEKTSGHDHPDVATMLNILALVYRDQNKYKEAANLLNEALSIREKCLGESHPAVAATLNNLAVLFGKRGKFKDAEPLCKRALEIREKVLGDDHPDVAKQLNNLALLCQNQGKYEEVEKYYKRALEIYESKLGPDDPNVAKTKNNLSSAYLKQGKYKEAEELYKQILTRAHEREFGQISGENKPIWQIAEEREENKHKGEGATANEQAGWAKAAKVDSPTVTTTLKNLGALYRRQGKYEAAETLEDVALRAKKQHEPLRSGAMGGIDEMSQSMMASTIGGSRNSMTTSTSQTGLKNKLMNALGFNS

In series [1], “UNC-83a-mScarlet-StrepII (from UniProt Q23064 1-1041) (domain or fragment)” showed a percent of particles in the peak of the complex of 99 % peak and a stoichiometry N (UNC-83a monomer per UNC-116 dimer) of 1. Besides, in series [2], the percent of particles in the peak of the complex turned out to be 97 % peak and the stoichiometry N (UNC-83a monomer per kinesin-1 tetramer) was found to be 1. Also, in series [3], the Kd (as a rule, the concentration at which binding is half-saturated) is greater than 1000 nM.

Consider “UNC-83c-mScarlet-StrepII (domain or fragment)”, for which, in series [4], the percent of particles in the peak of the complex was found to be 97 % peak and the stoichiometry N (UNC-83c monomer per KLC-2 monomer) was 1.

Turning to B1, the stoichiometry N (usually the number of molecules, sites or subunits per partner or assembly) was 1 UNC-83a^N-term monomer per UNC-116 dimer in series [5] and 2 in series [6].

As to B2, the “stoichiometry N” value in series [6] was 2.
